Experiment [1] deals with T1, human E-selectin extracellular domain with 10 His purification tail (human, UniProt P16581 22-556).
T1 construct: also called soluable human E-selectin extracellular domain; rhE-Selectin
T1 sequence: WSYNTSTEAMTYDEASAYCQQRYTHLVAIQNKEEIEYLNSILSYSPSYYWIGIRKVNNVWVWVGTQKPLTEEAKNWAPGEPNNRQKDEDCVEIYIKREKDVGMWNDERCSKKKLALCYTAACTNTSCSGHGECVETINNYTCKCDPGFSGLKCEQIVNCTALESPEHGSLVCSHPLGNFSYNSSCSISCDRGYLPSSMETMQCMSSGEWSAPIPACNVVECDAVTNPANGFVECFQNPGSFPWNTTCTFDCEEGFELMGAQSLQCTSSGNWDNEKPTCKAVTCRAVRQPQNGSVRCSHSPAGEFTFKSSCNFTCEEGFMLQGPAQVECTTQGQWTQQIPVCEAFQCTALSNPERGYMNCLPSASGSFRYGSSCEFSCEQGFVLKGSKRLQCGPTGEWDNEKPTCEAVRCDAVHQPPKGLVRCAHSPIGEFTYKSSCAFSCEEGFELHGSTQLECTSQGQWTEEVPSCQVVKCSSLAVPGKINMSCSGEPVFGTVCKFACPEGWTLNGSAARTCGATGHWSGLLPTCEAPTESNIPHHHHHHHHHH
Description: SPR, antibody captured, E-selectin analyte. On the procedure:
Final immobilization level of the capture antibody was approximately 10,000 resonance units (RU). The running buffer for immobilization and kinetics was HBS-EP+(10 mM 4-(2-hydroxyethyl)-1-piperazineethanesulfonic acid (HEPES) pH 7.4, 150 mM sodium chloride, 3 mM ethylenediaminetetraacetic acid (EDTA), 0.05% (v/v) Tween-20).
To characterize binding of antibodies to human, cynomolgus monkey, and mouse E-selectin, an antibody was diluted to 0.5 μg/mL in HBS-EP+ and captured by the anti-human IgG immobilized on flow cells 2, 3 and 4 for 30 seconds to 1 minute at a flow rate of 10 μL/minute to achieve a capture level of 70 to 300 RU. Flow cell 1 was used as a reference surface. […] HBS-EP+ buffer cycles collected for each captured antibody were used for double-referencing (Myszka D G. J. Mol. Recognition 1999; 12(5):279-84). At the end of each cycle, the entire anti-IgG surface was regenerated by a 30 second pulse of 3 M MgCl₂ and a 30 second pulse of ionic buffer (1.83 M MgCl₂, 0.92 M Urea, 1.83 M Guanidine HCl, pH 7.4) (Andersson K. Analy. Chem. 1999; 71(13): 2475-81). Kinetic assays were conducted at 25° C. at a collection rate of 10 Hertz (Hz) on a BIAcore™ T200 instrument (GE Healthcare). Rate constants and affinities were determined by fitting the data to a 1:1 binding model in BIAcore™ T200 Evaluation software version 3.0 (GE Healthcare).
This was done by first binding the antibody to immobilized anti-human IgG. After antibody capture, dilutions of the E-selectin proteins were flowed over and the association rate constant (ka), disassociation rate constant (kd), t½, and KD values were determined for binding to human and cynomolgus E-selectin (Table 13).

Experiment [2] concerns the target T2, human E-selectin, cell-surface expressed (human, UniProt P16581 22-610).
T2 construct: also called CHO-human E-selectin cells; human CHO-E
T2 sequence: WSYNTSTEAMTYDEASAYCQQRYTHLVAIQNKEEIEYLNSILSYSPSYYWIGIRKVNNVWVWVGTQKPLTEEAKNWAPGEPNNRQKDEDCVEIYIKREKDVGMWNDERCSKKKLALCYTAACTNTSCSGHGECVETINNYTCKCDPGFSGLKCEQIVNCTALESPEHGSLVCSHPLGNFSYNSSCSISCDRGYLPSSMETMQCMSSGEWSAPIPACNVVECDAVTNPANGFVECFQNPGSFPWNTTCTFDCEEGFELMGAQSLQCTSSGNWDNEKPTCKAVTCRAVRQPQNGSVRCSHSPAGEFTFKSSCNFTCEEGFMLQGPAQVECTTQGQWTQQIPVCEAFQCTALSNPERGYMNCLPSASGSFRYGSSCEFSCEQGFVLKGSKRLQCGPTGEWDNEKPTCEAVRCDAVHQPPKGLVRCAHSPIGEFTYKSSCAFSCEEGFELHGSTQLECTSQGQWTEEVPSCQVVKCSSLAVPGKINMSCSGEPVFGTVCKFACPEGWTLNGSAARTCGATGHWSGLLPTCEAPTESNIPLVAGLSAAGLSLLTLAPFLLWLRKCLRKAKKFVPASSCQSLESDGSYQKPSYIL
Put plainly: neutralization of sialyl Lewis A ligand binding, CHO cells, competition ELISA. As to the method: In a static ligand cellular adhesion assay, horse radish peroxidase (HRP) conjugated E-selectin ligand (sialyl Lewis antigen) and E-selectin antibodies compete for binding to human or cynomolgus E-selectin expressed on Chinese hamster ovary (CHO) cells. The ability of anti-E-selectin antibodies to neutralize ligand binding was assessed in a static neutralization assay using a competition enzyme-linked immunosorbent assay (ELISA) to evaluate the neutralization of the sialyl Lewis antigen to Chinese hamster ovary cells (CHO) engineered to express human or cynomolgus monkey E-selectin.
CHO cells expressing E-selectin were seeded at 12,500 cells per well into a 96 well tissue culture plate and incubated at 37° C., 5% CO₂ for 48 hours to form a confluent monolayer. Plates were subsequently washed twice with 200 μL of calcium magnesium free PBS. Anti-E-selectin antibodies or an IgG1 isotype control (IgG control) were added to the assay in the presence of a small synthetic conjugate of biotinylated, sialyl Lewis A polyacrylamide (Carbosynth LLC, OS45446) or sialyl Lewis X polyacrylamide (Glycotech, 01-045) with streptavidin/horseradish peroxidase (100 μL total) and incubated at 37° C., 5% CO₂ for 2 hours. […] Reactions were stopped using 2 M of sulfuric acid and absorbance was read at 450 nm (Spectramax M5e). Data were analyzed and graphed using GraphPad Prism software (Version 8.0.2).
For orientation: An ELISA detects its analyte on a solid surface through an enzyme-linked reagent.

We go through two molecules from US20240076386A1 (Pfizer, published 2024).

Broadly, the Kd is the equilibrium constant for the complex coming apart. Low readings indicate tighter binding, high ones weaker binding. As usually defined, the koff is the rate constant with which the complex falls apart. The kon is the second-order rate constant of association. A high value points to fast association. By t½ is commonly meant how long it takes for the measured level to halve. A high value points to slow loss. Broadly, the IC50 is the point on the concentration scale where inhibition reaches its midpoint. Read a high IC50 as a need for much substance.

B1: humanized anti-E-selectin antibody 0841 (antibody, human IgG1, kappa, V domains shown)
VH: EVQLVESGGGLVQPGGSLRLSCAASGYNIRSSYMHWVRQAPGKGLEWVARIDPANGNTIYAEKFKIRFTISADNAKNSAYLQMNSLRAEDTAVYYCAMDLYSTSEYWGQGTLVTVSS
VL: DIQMTQSPSSLSASVGDRVTITCKTSQNINRYLNWYQQKPGKAPKLLIYNANSLQTGVPSRFSGSGSGTDFTLTISSLQPEDFATYFCLQDNSWPLTFGQGTKVEIKR
notes: effector-null human IgG1, kappa
On to B1, for which, in experiment [1], the Kd stood at 92.8 nM, the koff is 0.0237 s⁻¹, the kon is 255000 M⁻¹ s⁻¹ and the t½ came out at 29.3 s.

B2: optimized anti-E-selectin antibody 1444 (antibody, human IgG1, kappa, V domains shown)
VH: EVQLVESGGGLVQPGGSLRLSCAASGYAIRSAYMHWVRQAPGKGLEWVARIDPANGNTIYVDSVTGRFTISADNAKNSAYLQMNSLRAEDTAVYYCAMDLYSTSEYWGQGTLVTVSS
VL: DIQMTQSPSSLSASVGDRVTITCKTSQNIERYLNWYQQKPGKAPKLLIYAASSLQSGVPSRFSGSGSGTDFTLTISSLQPEDFATYFCLQDNAWPLTFGQGTKVEIKR
notes: as for B1
As for B2, the IC50 in experiment [2] was 1.88 to 2.89 nM.
